Test results as given in article PMC4770912.

Assays:
[1] = biological target: SIRPα variant (10), three domain construct with rat CD4d3+4 tag (human); assay: SPR; as a1, CD47 at 22 uM passed over again after OX130 MAb had been passed over the immobilised SIRP proteins
[2] = biological target: SIRPα variant (10), three domain construct with rat CD4d3+4 tag (human); assay: SPR; BIAcore 3000; SIRP proteins captured through their rat CD4d3+4 tag on the rat CD4 MAb OX68 immobilised on a CM5 chip (about 1000 RU); human CD47 at 22 uM passed over; RU of the control rat CD4 domains 3 and 4 subtracted

SIRPα variant (10), three domain construct with rat CD4d3+4 tag (human), sequence (main, as listed by the source mutant): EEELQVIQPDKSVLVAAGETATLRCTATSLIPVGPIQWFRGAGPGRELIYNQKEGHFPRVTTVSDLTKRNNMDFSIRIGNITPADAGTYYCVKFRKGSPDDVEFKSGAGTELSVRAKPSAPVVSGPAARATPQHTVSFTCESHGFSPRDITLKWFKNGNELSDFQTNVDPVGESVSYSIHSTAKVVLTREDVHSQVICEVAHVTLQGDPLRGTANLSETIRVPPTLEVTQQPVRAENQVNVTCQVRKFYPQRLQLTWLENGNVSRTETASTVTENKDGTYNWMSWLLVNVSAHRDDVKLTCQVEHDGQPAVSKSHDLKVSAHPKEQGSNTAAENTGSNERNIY

response units (RU) after OX130 injection [1]: 247 RU | response units (RU) [2]: 280 RU
Substance: Human CD47 (from UniProt Q08722 19-141) (ligand)
